# Laboratory results published in US20210017293 (published 2021).
# Read-outs that look alike come from different tables or passages of the source.
# T1: human TNFR1 (human, UniProt P19438)
# T1 chain: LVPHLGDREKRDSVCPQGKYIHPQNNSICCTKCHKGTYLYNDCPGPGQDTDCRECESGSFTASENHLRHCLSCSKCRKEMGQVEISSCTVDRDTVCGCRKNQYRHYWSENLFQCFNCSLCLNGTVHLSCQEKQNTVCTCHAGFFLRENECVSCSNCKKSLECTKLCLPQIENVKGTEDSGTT
# Tests used:
# human TNFR1 [1] = target: T1, human TNFR1; assay: ELISA
# human TNFR1 [2] = target: T1, human TNFR1; assay: ELISA
# human TNFR1 [3] = target: T1, human TNFR1; assay: ELISA
# human TNFR1 [4] = target: T1, human TNFR1; assay: SPR
# DMS30038-R (DMS30051) = DMS30038-R (DMS30051) (human); assay: SPR 37C
Binder,EC50 (human TNFR1 [1]),EC50 (human TNFR1 [3]),other results
"DOM1H-131-206 C-terminal S deletion (antibody, V domains shown) VH: EVQLLESGGGLVQPGGSLRLSCAASGFTFAHETMVWVRQAPGKGLEWVSHIPPDGQDPFYADSVKGRFTISRDNSKNTLYLQMNSLRAEDTAVYHCALLPKRGPWFDYWGQGTLVTVS",500 pM,–,–
"DOM1H-131-206 P14A + C-terminal ASTKG (antibody, V domains shown) VH: EVQLLESGGGLVQAGGSLRLSCAASGFTFAHETMVWVRQAPGKGLEWVSHIPPDGQDPFYADSVKGRFTISRDNSKNTLYLQMNSLRAEDTAVYHCALLPKRGPWFDYWGQGTLVTVSS",1470 pM,–,EC50 (human TNFR1 [2]): 4640 pM
"DOM1H-131-206 C-terminal ASTKG (antibody, V domains shown) VH: EVQLLESGGGLVQPGGSLRLSCAASGFTFAHETMVWVRQAPGKGLEWVSHIPPDGQDPFYADSVKGRFTISRDNSKNTLYLQMNSLRAEDTAVYHCALLPKRGPWFDYWGQGTLVTVSS",–,1110 pM,EC50 (human TNFR1 [2]): 1900 pM
"DOM1H-131-206 P14T (antibody, V domains shown) VH: EVQLLESGGGLVQTGGSLRLSCAASGFTFAHETMVWVRQAPGKGLEWVSHIPPDGQDPFYADSVKGRFTISRDNSKNTLYLQMNSLRAEDTAVYHCALLPKRGPWFDYWGQGTLVTVSS",770 pM,–,–
"DOM1H-131-206 P14A, G44E (antibody, V domains shown) VH: EVQLLESGGGLVQAGGSLRLSCAASGFTFAHETMVWVRQAPGKELEWVSHIPPDGQDPFYADSVKGRFTISRDNSKNTLYLQMNSLRAEDTAVYHCALLPKRGPWFDYWGQGTLVTVSS",–,2030 pM,–
"DOM1H-131-206 K43A (antibody, V domains shown) VH: EVQLLESGGGLVQPGGSLRLSCAASGFTFAHETMVWVRQAPGAGLEWVSHIPPDGQDPFYADSVKGRFTISRDNSKNTLYLQMNSLRAEDTAVYHCALLPKRGPWFDYWGQGTLVTVSS",–,670 pM,–
"DOM1H-131-206 C-terminal ASTKGP (antibody, V domains shown) VH: EVQLLESGGGLVQPGGSLRLSCAASGFTFAHETMVWVRQAPGKGLEWVSHIPPDGQDPFYADSVKGRFTISRDNSKNTLYLQMNSLRAEDTAVYHCALLPKRGPWFDYWGQGTLVTVSS",–,11900 pM,–
"DOM1H-131-206 P41A (antibody, V domains shown) VH: EVQLLESGGGLVQPGGSLRLSCAASGFTFAHETMVWVRQAAGKGLEWVSHIPPDGQDPFYADSVKGRFTISRDNSKNTLYLQMNSLRAEDTAVYHCALLPKRGPWFDYWGQGTLVTVSS",–,590 pM,–
"DOM1H-131-206 P14Q + C-terminal ASTKG (antibody, V domains shown) VH: EVQLLESGGGLVQQGGSLRLSCAASGFTFAHETMVWVRQAPGKGLEWVSHIPPDGQDPFYADSVKGRFTISRDNSKNTLYLQMNSLRAEDTAVYHCALLPKRGPWFDYWGQGTLVTVSS",1100 pM,–,–
"DOM1H-131-206 C-terminal AST (antibody, V domains shown) VH: EVQLLESGGGLVQPGGSLRLSCAASGFTFAHETMVWVRQAPGKGLEWVSHIPPDGQDPFYADSVKGRFTISRDNSKNTLYLQMNSLRAEDTAVYHCALLPKRGPWFDYWGQGTLVTVSS",1990 pM,–,–
"DOM1H-131-206 Q13A (antibody, V domains shown) VH: EVQLLESGGGLVAPGGSLRLSCAASGFTFAHETMVWVRQAPGKGLEWVSHIPPDGQDPFYADSVKGRFTISRDNSKNTLYLQMNSLRAEDTAVYHCALLPKRGPWFDYWGQGTLVTVSS",–,1750 pM,–
"DOM1H-131-206 P14Q + C-terminal A (antibody, V domains shown) VH: EVQLLESGGGLVQQGGSLRLSCAASGFTFAHETMVWVRQAPGKGLEWVSHIPPDGQDPFYADSVKGRFTISRDNSKNTLYLQMNSLRAEDTAVYHCALLPKRGPWFDYWGQGTLVTVSS",460 pM,–,–
"DOM1H-131-206 P14K (antibody, V domains shown) VH: EVQLLESGGGLVQKGGSLRLSCAASGFTFAHETMVWVRQAPGKGLEWVSHIPPDGQDPFYADSVKGRFTISRDNSKNTLYLQMNSLRAEDTAVYHCALLPKRGPWFDYWGQGTLVTVSS",720 pM,–,–
"DOM1H-131-206 P14A (antibody, V domains shown) VH: EVQLLESGGGLVQAGGSLRLSCAASGFTFAHETMVWVRQAPGKGLEWVSHIPPDGQDPFYADSVKGRFTISRDNSKNTLYLQMNSLRAEDTAVYHCALLPKRGPWFDYWGQGTLVTVSS",–,1220 pM,–
"DOM1H-131-206 P14K + C-terminal ASTKG (antibody, V domains shown) VH: EVQLLESGGGLVQKGGSLRLSCAASGFTFAHETMVWVRQAPGKGLEWVSHIPPDGQDPFYADSVKGRFTISRDNSKNTLYLQMNSLRAEDTAVYHCALLPKRGPWFDYWGQGTLVTVSS",480 pM,–,–
"DOM1H-131-206 P14A + C-terminal A (antibody, V domains shown) VH: EVQLLESGGGLVQAGGSLRLSCAASGFTFAHETMVWVRQAPGKGLEWVSHIPPDGQDPFYADSVKGRFTISRDNSKNTLYLQMNSLRAEDTAVYHCALLPKRGPWFDYWGQGTLVTVSS",570 pM,–,EC50 (human TNFR1 [2]): 2220 pM
VEGF165 (protein) APMAEGGGQNHHEVVKFMDVYQRSYCHPIETLVDIFQEYPDEIEYIFKPSCVPLMRCGGCCNDEGLECVPTEESNITMQIMRIKPHQGQHIGEMSFLQHNKCECRPKKDRARQENPCGPCSERRKHLFVQDPQTCKCSCKNTDSRCKARQLELNERTCRCDKPRR,–,–,Kd (DMS30038-R (DMS30051)): 0.00431 pM

# Now from value to binder, other results behind:
EC50 (human TNFR1 [1]),EC50 (human TNFR1 [3]),Binder,other results
–,860 pM,"DOM1H-131-206 G44E (antibody, V domains shown) VH: EVQLLESGGGLVQPGGSLRLSCAASGFTFAHETMVWVRQAPGKELEWVSHIPPDGQDPFYADSVKGRFTISRDNSKNTLYLQMNSLRAEDTAVYHCALLPKRGPWFDYWGQGTLVTVSS",–
460 pM,–,"DOM1H-131-206 P14K + C-terminal A (antibody, V domains shown) VH: EVQLLESGGGLVQKGGSLRLSCAASGFTFAHETMVWVRQAPGKGLEWVSHIPPDGQDPFYADSVKGRFTISRDNSKNTLYLQMNSLRAEDTAVYHCALLPKRGPWFDYWGQGTLVTVSS",–
910 pM,–,"DOM1H-131-206 P14Q (antibody, V domains shown) VH: EVQLLESGGGLVQQGGSLRLSCAASGFTFAHETMVWVRQAPGKGLEWVSHIPPDGQDPFYADSVKGRFTISRDNSKNTLYLQMNSLRAEDTAVYHCALLPKRGPWFDYWGQGTLVTVSS",–
640 pM,–,"DOM1H-131-206 P14E (antibody, V domains shown) VH: EVQLLESGGGLVQEGGSLRLSCAASGFTFAHETMVWVRQAPGKGLEWVSHIPPDGQDPFYADSVKGRFTISRDNSKNTLYLQMNSLRAEDTAVYHCALLPKRGPWFDYWGQGTLVTVSS",–
660 pM,–,"DOM1H-131-206 P14T + C-terminal A (antibody, V domains shown) VH: EVQLLESGGGLVQTGGSLRLSCAASGFTFAHETMVWVRQAPGKGLEWVSHIPPDGQDPFYADSVKGRFTISRDNSKNTLYLQMNSLRAEDTAVYHCALLPKRGPWFDYWGQGTLVTVSS",–
670 pM,1990 pM,"DOM1H-131-206 (antibody, V domains shown) VH: EVQLLESGGGLVQPGGSLRLSCAASGFTFAHETMVWVRQAPGKGLEWVSHIPPDGQDPFYADSVKGRFTISRDNSKNTLYLQMNSLRAEDTAVYHCALLPKRGPWFDYWGQGTLVTVSS",Kd (human TNFR1 [4]): 14.3 pM; EC50 (human TNFR1 [2]): 1970 pM
510 pM,–,"DOM1H-131-206 L11A (antibody, V domains shown) VH: EVQLLESGGGAVQPGGSLRLSCAASGFTFAHETMVWVRQAPGKGLEWVSHIPPDGQDPFYADSVKGRFTISRDNSKNTLYLQMNSLRAEDTAVYHCALLPKRGPWFDYWGQGTLVTVSS",–
–,1590 pM,"DOM1H-131-206 C-terminal ASTK (antibody, V domains shown) VH: EVQLLESGGGLVQPGGSLRLSCAASGFTFAHETMVWVRQAPGKGLEWVSHIPPDGQDPFYADSVKGRFTISRDNSKNTLYLQMNSLRAEDTAVYHCALLPKRGPWFDYWGQGTLVTVSS",–
720 pM,–,"DOM1H-131-206 P14T + C-terminal ASTKG (antibody, V domains shown) VH: EVQLLESGGGLVQTGGSLRLSCAASGFTFAHETMVWVRQAPGKGLEWVSHIPPDGQDPFYADSVKGRFTISRDNSKNTLYLQMNSLRAEDTAVYHCALLPKRGPWFDYWGQGTLVTVSS",–
–,1210 pM,"DOM1H-131-206 C-terminal A (antibody, V domains shown) VH: EVQLLESGGGLVQPGGSLRLSCAASGFTFAHETMVWVRQAPGKGLEWVSHIPPDGQDPFYADSVKGRFTISRDNSKNTLYLQMNSLRAEDTAVYHCALLPKRGPWFDYWGQGTLVTVSS",Kd (human TNFR1 [4]): 25.3 pM; EC50 (human TNFR1 [2]): 2710 pM
